Assay results as given in patent publication US20260327324 (published 2026).
Positions count from the first letter of the chain named. Names may count otherwise.

T1: MSLN (UniProt Q13421)
T1 chain: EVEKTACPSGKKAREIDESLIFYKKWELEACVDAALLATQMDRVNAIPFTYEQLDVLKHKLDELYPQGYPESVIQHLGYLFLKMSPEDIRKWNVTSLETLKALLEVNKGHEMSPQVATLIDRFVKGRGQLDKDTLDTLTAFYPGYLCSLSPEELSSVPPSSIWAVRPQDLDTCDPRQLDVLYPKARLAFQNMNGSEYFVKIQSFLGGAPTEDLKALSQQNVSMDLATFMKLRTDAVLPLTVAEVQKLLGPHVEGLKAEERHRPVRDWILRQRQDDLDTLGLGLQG

T2: CD3e (UniProt P07766)
T2 chain: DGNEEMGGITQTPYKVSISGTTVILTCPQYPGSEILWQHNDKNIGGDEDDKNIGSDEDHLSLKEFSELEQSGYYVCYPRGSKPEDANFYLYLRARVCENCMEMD

B1: PRO3477 (37-20-B03-sc09.1 human consensus LCDR2) (antibody)
chain: DIQMTQSPASLSASVGDRVTITCQASQSIGTYLAWYQQKPGKPPKLLIYAASSLQSGVPSRFSGSGSGTDFTLTISSLQPEDFATYYCQSNFYSDSTTIGPNAFGTGTKVTVLGGGGGSGGGGSGGGGSGGGGSEVQLVESGGGLVQPGGSLRLSCAASGFSFNSDYWIYWVRQAPGKGLEWIASIYGGSSGNTQYASWAQGRFTISRDNSKNTVYLQMNSLRAEDTAVYFCARGYVDYGGATDLWGQGTLVTVSS
B2: PRO3478 (37-20-B03-sc09.1 Y42S human consensus LCDR2) (antibody)
chain: B1 chain with Y170S
B3: PRO3732 (54-21-H03-sc01 A67G_S68G) (antibody)
chain: DIQMTQSPSSLSASVGDRVTITCQASESIYSSLAWYQQKPGKAPKLLIYLGGTLASGVPSRFSGSGSGTDFTLTISSLQPEDFATYYCQSTDYTTSTHRNSFGTGTKVTVLGGGGGSGGGGSGGGGSGGGGSEVQLVESGGGLVQPGGSLRLSCAASGFSFSTTYYMCWVRQAPGKGLEWIGCTNTASSVRTYYATWAKGRFTISRDNSKNTVYLQMNSLRAEDTAVYYCARDMGFADYALNLWGQGTLVTVSS
B4: PRO1922 (54-21-H03-sc01) (antibody)
chain: B3 chain with G51A, G52S
B5: PRO3733 (54-32-A07-sc06 G51C_T141C A67G_S68G) (antibody)
chain: ALQMTQSPSSLSARVGDRVTIKCQASQSISNYLAWYQQKPGKPPKFLIYDGGDLASGVPSRFSGSGSGRDFTLTISSLQPEDFATYYCQQVYDSNNVENVFGCGTKVTVLGGGGGSGGGGSGGGGSGGGGSQSQLVESGGGLVQPGGSLRLSCAVSGFSLSSYAMGWVRQAPGKCLEYIGYISKIGTTYYASWAKGRFTISKDNSKNTVYLQMNSLRAEDTAVYFCARGSSSGGYLDDGFDPWGQGTLVTVSS
B6: PRO2309 (54-32-A07-sc06 G51C_T141C) (antibody)
chain: B5 chain with G51A, G52S
B7: PRO3718 (28-21-D09-sc04 A67G_S68G) (antibody)
chain: DIQMTQSPSSLSASVGDRVTITCQSSQSVFSNNYLAWFQQKPGQSPKRLIYSGGTLASGVPSRFSGSGSGTDFTLTISSLQPEDFATYYCLGSYACSSADCYVFGTGTKVTVLGGGGGSGGGGSGGGGSGGGGSEVQLVESGGGLVQPGGSLRLSCAASGFSLSSYDMSWVRQAPGKGLAWIGASYASGPTYYASWAKGRFTISRDNSKNTVYLQMNSLRAEDTATYFCARGGWTGTSHSNIWGQGTLVTVSS
B8: PRO2781 (28-21-D09-sc04) (antibody)
chain: B7 chain with G53A, G54S
B9: PRO2155 (19-04-A10-sc02) (antibody)
chain: AFELTQSPSSLSASVGDRVTITCQASESINSRLAWYQQKPGQPPKLLIYDASDLTSGVPSRFSGSGSGTDFTLTISSLQPEDFATYYCQGYGGSSTTTFGGGTKLTVLGGGGGSGGGGSGGGGSGGGGSEVQLVESGGGLVQPGGSLRLSCAASGFSLSSYAMNWVRQAPGKGLEWIGHINAGDIAYYATWAKGRFTISRDNSKNTVYLQMNSLRAEDTAVYFCARGAGGFSTGPFKLWGQGTLVTVSS
B10: PRO4112 (19-04-A10-sc11) (antibody)
chain: AFQLTQSPSSLSASVGDRVTITCQASESINSRLAWYQQKPGKPPKLLIYDASDLTSGVPSRFSGRGSGTDFTLTISSLQPEDFATYYCQGYGGSSTTTFGCGTKVTVLGGGGGSGGGGSGGGGSGGGGSQQLVESGGGLVQPGGSLRLSCAASGFSLSSYAMNWVRQAPGKCLEWIGHINAGDIAYYATWAKGRFTISKDNSKNTVYLQMNNLRAEDSAVYFCARGAGGFSTGPFKLWGQGTLVKVSS
B11: PRO4113 (19-04-A10-sc12) (antibody)
chain: B10 chain with Q131S, L132V, N212S
B12: PRO1347 (37-20-B03 sc09-IF) (antibody)
chain: IQMTQSPASLSASVGDRVTITCQASQSIGTYLAWYQQKPGKPPKLLIYRAFILASGVPSRFSGSGSGTDFTLTISSLQPEDFATYYCQSNFYSDSTTIGPNAFGTGTKVTVLGGGGGSGGGGSGGGGSGGGGSEVQLVESGGGLVQPGGSLRLSCAASGFSFNSDYWIYWVRQAPGKGLEWIACIYGGSSGNTQYASWAQGRFTISRDNSKNTVYLQMNSLRAEDTAVYFCARGYVDYGGATDLWGQGTLVTVSS
B13: PRO4125 (37-20-B03 sc17 A67G_F68G) (antibody)
chain: DIQMTQSPSSLSASVGDRVTITCQASQSIGTYLAWYQQKPGKPPKLLIYRGGILASGVPSRFSGSGSGTDFTLTISSLQPEDFATYYCQSNFYSDSTTIGPNAFGTGTKVTVLGGGGGSGGGGSGGGGSGGGGSQSLVESGGGLVQPGGSLRLSCAASGFSFNSDYWISWVRQAPGKGLEWIASIYGGSSGNTQYASWAQGRFTISKDNSKNTVYLQMNSLRAEDTAVYFCARGYVDYGGATDLWGQGTLVTVSS
B14: PRO1434 (33-03-G02 Q108A_G109A) (antibody)
chain: DIQMTQSPSSLSASVGDRVTITCQASQSINDYLAWYQQKPGKAPKLLIYKASTLASGVPSRFSGSGSGTDFTLTISSLQPEDFATYYCQAAYIITDIDNVFGTGTKVTVLGGGGGSGGGGSGGGGSGGGGSQVQLQESGPGLVKPSETLSLTCKVSGFSFSSGYDMCWIRQPPGKGLEWIGCVVAGSVDITYYASWAKGRVTISVDSSKNQFSLKLSSVTAADTAVYYCARKDAYSDAFNLWGQGTLVTVSS
B15: PRO3725 (33-03-G02 Q108A_G109A A67G_F68G) (antibody)
chain: B14 chain with A51G, S52G
B16: PRO2062 (55-39-G02-sc02) (antibody)
chain: AQQLTQSPSSLSASVGDRVTITCQASQNVWNNNYLSWFQQKPGKPPKLLIVTASTLASGVSSRFSGSGSGTDFTLTISSLQPEDFATYYCAGGFSGEIRAFGTGTKVTVLGGGGGSGGGGSGGGGSGGGGSQSQLVESGGGLVQPGGSLRLSCAVSGLSLSRNAMSWVRQAPGKGLEWIGIILTSGSTYYASWAKGRFTISKDNSKNTVYLQMNSLRAEDTAVYFCVRGIASSSLKSFWGQGTLVTVSS
B17: PRO3734 (55-39-G02-sc02 A67G_S68G) (antibody)
chain: B16 chain with A53G, S54G
B18: PRO3735 (55-38-D07-sc02 A67G_S68G) (antibody)
chain: DVQMTQSPSSLSASVGDRVTITCRASENIYSGLAWYQQKPGKPPKLLIYRGGTLASGVSSRFSGSGSGTDFTLTISSLQPEDFATYYCQGGYYSSSSTYIAFGTGTKVTVLGGGGGSGGGGSGGGGSGGGGSQSQVVESGGGLVQPGGSLRLSCAVSGFDLSSYAVSWVRQAPGKGLEWIGIIYPRANTYYASWAKGRFTISKDNSKNTVYLQMNSLRAEDTAVYFCARDRYDSGAYLYTTYFNLWGQGTLVTVSS
B19: PRO4139 (55-38-D07-sc09 A67G_S68G) (antibody)
chain: DVQMTQSPSSLSASVGDRVTITCRASENIYSGLAWYQQKPGKPPKLLIYRGGTLASGVSSRFSGSGSGTDFTLTISSLQPEDFATYYCQGGYYSSSSTYIAFGTGTKVTVLGGGGGSGGGGSGGGGSGGGGSQSVVESGGGLVQPGGSLRLSCAVSGFDLSSYAVSWVRQAPGKGLEWIGIIYPRANTYYASWAKGRFTISKDNSKNTVYLQMNSLRAEDSAVYFCARDRYDSGAYLYTTYFNLWGQGTLVKVSS
B20: PRO4143 (55-38-D07-sc09 G51C A67G_S68G_T141C) (antibody)
chain: B19 chain with T104C, G175C
B21: PRO4135 (55-38-D07-sc09) (antibody)
chain: B19 chain with G51A, G52S
B22: PRO2060 (55-38-D07-sc02) (antibody)
chain: VQMTQSPSSLSASVGDRVTITCRASENIYSGLAWYQQKPGKPPKLLIYRASTLASGVSSRFSGSGSGTDFTLTISSLQPEDFATYYCQGGYYSSSSTYIAFGTGTKVTVLGGGGGSGGGGSGGGGSGGGGSQSQVVESGGGLVQPGGSLRLSCAVSGFDLSSYAVSWVRQAPGKGLEWIGIIYPRANTYYASWAKGRFTISKDNSKNTVYLQMNSLRAEDTAVYFCARDRYDSGAYLYTTYFNLWGQGTLVTVSS

The binders below were run against PD-L1 (UniProt Q9NZQ7) (assay: SPR).
PD-L1, sequence (Q9NZQ7 19-238): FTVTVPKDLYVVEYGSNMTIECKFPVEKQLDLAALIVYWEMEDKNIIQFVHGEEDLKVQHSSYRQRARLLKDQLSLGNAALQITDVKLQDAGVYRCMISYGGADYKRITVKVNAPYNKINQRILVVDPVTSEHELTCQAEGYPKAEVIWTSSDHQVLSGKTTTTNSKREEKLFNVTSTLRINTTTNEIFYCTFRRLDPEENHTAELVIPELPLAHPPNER

Row | binding result | Binder
1 | no binding | B1
2 | no binding | B2

Target: T1, MSLN
Assay: SPR

Row | Kd | Binder
3 | 0.172 nM | B3
4 | 0.151 nM | B4
5 | 1.58 nM | B5
6 | 0.561 nM | B6

Target: T2, CD3e
Assay: SPR

Row | Kd | Binder
7 | 5.2 nM | B7
8 | 5.88 nM | B8

The binders below were run against HSA (human, UniProt P02768) (assay: SPR).

Row | Kd | Binder
9 | 2.62 nM | B9
10 | 0.174 nM | B10
11 | 0.0901 nM | B11

Target: PD-L1 (UniProt Q9NZQ7)
Assay: SPR
Remark: another data set of the same source

Row | Kd | Binder
12 | 0.0109 nM | B12
13 | 0.196 nM | B13
14 | 491 nM | B14
15 | 491 nM | B15

Each binder was assayed against ROR1 (UniProt Q01973) (assay: SPR).
ROR1, sequence (Q01973 30-403): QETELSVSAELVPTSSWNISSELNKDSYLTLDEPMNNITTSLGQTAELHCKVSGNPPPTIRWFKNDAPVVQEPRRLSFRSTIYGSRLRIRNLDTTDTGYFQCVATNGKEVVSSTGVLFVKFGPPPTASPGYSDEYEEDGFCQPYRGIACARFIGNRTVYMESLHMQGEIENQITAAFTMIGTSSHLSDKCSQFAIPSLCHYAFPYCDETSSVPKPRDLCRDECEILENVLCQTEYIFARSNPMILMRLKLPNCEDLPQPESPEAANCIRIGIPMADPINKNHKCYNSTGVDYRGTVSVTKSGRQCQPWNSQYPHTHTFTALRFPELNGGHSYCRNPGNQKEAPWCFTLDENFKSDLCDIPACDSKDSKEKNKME

Row | Kd | Binder
16 | 0.108 nM | B16
17 | 0.12 nM | B17
18 | 0.336 nM | B18
19 | 0.212 nM | B19
20 | 0.631 nM | B20
21 | 0.122 nM | B21
22 | 0.119 nM | B22
